Reference: PMC3823233 (Nature structural & molecular biology, 2013)

Tests used:
[1] = biological target: BG505 SOSIP.664 gp140 trimer (HIV-1 clade A, isolate BG505 …, stabilised, glycosylated)
gp120 from strain JRCSF = gp120 from strain JRCSF (HIV-1 (isolate JRCSF), UniProt P20871); assay: ELISA
gp120 from strain JRFL = gp120 from strain JRFL (HIV-1 clade B, isolate JR-FL, UniProt Q75760, strain); assay: ELISA

B1: PGT 135 Fab (Fab, V domains shown)
VH: QLQMQESGPGLVKPSETLSLSCTVSGDSIRGGEWGDKDYHWGWVRHSAGKGLEWIGSIHWRGTTHYKESLRRRVSMSIDTSRNWFSLRLASVTAADTAVYFCARHRHHDVFMLVPIAGWFDVWGPGVQVTVSS
VL: EIVMTQSPDTLSVSPGETVTLSCRASQNINKNLAWYQYKPGQSPRLVIFETYSKIAAFPARFVASGSGTEFTLTINNMQSEDVAVYYCQQYEEWPRTFGQGTKVDIK
B1 was tested, and the “stoichiometry N” value [1] was 3 Fabs per trimer.

B2: PGT 135 IgG (antibody, V domains shown)
VH: QLQMQESGPGLVKPSETLSLSCTVSGDSIRGGEWGDKDYHWGWVRHSAGKGLEWIGSIHWRGTTHYKESLRRRVSMSIDTSRNWFSLRLASVTAADTAVYFCARHRHHDVFMLVPIAGWFDVWGPGVQVTVSS
VL: EIVMTQSPDTLSVSPGETVTLSCRASQNINKNLAWYQYKPGQSPRLVIFETYSKIAAFPARFVASGSGTEFTLTINNMQSEDVAVYYCQQYEEWPRTFGQGTKVDIK
B2: binds (gp120 from strain JRCSF); binds (gp120 from strain JRFL).
